Bridges are numbered along the chain shown (N, C = ends). Where no end group is shown, it is not given here. [ ]: non-standard residue; d: D form. The star is where a group is joined. Acetyl(2-(4-imidazolyl)) = O=C(Cc1c[nH]cn1)*; Aib = CC(C)(N)C(=O)O
Assays:
Test in all cases: cell-based or functional assay
human GLP-1 receptor = human GLP-1 receptor (human, UniProt P43220 24-463)
human GIP receptor = target: T1, human GIP receptor (human, UniProt P48546 22-466)
T1 sequence (looked up): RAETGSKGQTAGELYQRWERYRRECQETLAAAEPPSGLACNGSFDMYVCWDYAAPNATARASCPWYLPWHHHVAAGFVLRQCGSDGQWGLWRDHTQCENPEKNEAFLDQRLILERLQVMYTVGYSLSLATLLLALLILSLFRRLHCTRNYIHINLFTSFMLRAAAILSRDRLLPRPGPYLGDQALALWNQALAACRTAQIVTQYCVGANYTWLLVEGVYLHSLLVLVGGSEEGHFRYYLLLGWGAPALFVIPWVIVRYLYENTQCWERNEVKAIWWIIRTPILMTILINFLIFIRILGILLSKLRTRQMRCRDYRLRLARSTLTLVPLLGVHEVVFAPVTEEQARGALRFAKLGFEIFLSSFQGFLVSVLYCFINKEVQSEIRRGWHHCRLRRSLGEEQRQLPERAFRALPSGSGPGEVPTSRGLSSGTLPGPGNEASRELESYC

human GCG receptor = human GCG receptor (human, UniProt P47871 26-477)
Chain of human GCG receptor (P47871 26-477): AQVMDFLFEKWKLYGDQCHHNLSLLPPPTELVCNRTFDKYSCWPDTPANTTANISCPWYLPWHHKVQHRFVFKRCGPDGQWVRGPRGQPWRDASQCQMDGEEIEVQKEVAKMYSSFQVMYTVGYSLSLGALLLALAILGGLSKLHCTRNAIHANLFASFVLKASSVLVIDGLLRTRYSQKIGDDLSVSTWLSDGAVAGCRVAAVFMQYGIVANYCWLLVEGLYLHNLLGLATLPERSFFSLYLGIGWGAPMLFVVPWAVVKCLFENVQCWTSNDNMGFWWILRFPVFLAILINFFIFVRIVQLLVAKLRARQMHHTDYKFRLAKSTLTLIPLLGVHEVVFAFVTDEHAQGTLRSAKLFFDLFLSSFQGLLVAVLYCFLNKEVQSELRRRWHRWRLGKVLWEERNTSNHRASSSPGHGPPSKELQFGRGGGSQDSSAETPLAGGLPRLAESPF

B1: triple agonist of SEQ ID NO: 55 (peptide)
peptide: H[Aib]QGTFTSDYSIAMDEIHQKDFVNWLLAQC
modifications: bridge 16-20; not fully specified (C-terminus)
in vitro Activity Compared to Native Peptide (%), vs GLP-1 (human GLP-1 receptor): 27.1%
in vitro Activity Compared to Native Peptide (%), vs GIP (human GIP receptor): 2.4%
in vitro Activity Compared to Native Peptide (%), vs Glucagon (human GCG receptor): 0.7%

B2: triple agonist of SEQ ID NO: 65 (peptide)
peptide: H[Aib]QGTFTSDYSKCLDEKRAKEFVQWLLDHHPSSGQPPPS
modifications: bridge 16-20; not fully specified (C-terminus)
in vitro Activity Compared to Native Peptide (%), vs GLP-1 (human GLP-1 receptor): 95.4%
in vitro Activity Compared to Native Peptide (%), vs GIP (human GIP receptor): 11.6%
in vitro Activity Compared to Native Peptide (%), vs Glucagon (human GCG receptor): 25.2%

B3: triple agonist of SEQ ID NO: 53 (peptide)
peptide: H[Aib]EGTFTSDYSIAMDEIHQKDFVNWLLAQC
modifications: bridge 16-20; not fully specified (C-terminus)
in vitro Activity Compared to Native Peptide (%), vs GLP-1 (human GLP-1 receptor): 161%
in vitro Activity Compared to Native Peptide (%), vs GIP (human GIP receptor): 1.3%
in vitro Activity Compared to Native Peptide (%), vs Glucagon (human GCG receptor): 8.4%

B4: triple agonist of SEQ ID NO: 7 (peptide)
peptide: H[Aib]QGTFTSDVSKYLDGQAAKEFVAWLLKGC
modifications: not fully specified (C-terminus)
in vitro Activity Compared to Native Peptide (%), vs GLP-1 (human GLP-1 receptor): 13.7%
in vitro Activity Compared to Native Peptide (%), vs GIP (human GIP receptor): < 0.1%
in vitro Activity Compared to Native Peptide (%), vs Glucagon (human GCG receptor): < 0.1%

B5: triple agonist of SEQ ID NO: 60 (peptide)
peptide: [Acetyl(2-(4-imidazolyl))][Aib]QGTFTSDYSIAMDEKHCKDFVNWLLNTK
modifications: bridge 16-20; not fully specified (C-terminus)
in vitro Activity Compared to Native Peptide (%), vs GLP-1 (human GLP-1 receptor): 106%
in vitro Activity Compared to Native Peptide (%), vs GIP (human GIP receptor): 8.2%
in vitro Activity Compared to Native Peptide (%), vs Glucagon (human GCG receptor): < 0.1%

B6: triple agonist of SEQ ID NO: 59 (peptide)
peptide: [Acetyl(2-(4-imidazolyl))][Aib]QGTFTSDYSICMDEKHQKDFVNWLLNTK
modifications: bridge 16-20; not fully specified (C-terminus)
in vitro Activity Compared to Native Peptide (%), vs GLP-1 (human GLP-1 receptor): 40.3%
in vitro Activity Compared to Native Peptide (%), vs GIP (human GIP receptor): 4%
in vitro Activity Compared to Native Peptide (%), vs Glucagon (human GCG receptor): < 0.1%

B7: triple agonist of SEQ ID NO: 67 (peptide)
peptide: Y[Aib]QGTFTSDYSKYLDECAAKDFVQWLLDHHPSSGQPPPS
modifications: bridge 16-20; not fully specified (C-terminus)
in vitro Activity Compared to Native Peptide (%), vs GLP-1 (human GLP-1 receptor): 28.5%
in vitro Activity Compared to Native Peptide (%), vs GIP (human GIP receptor): 39.8%
in vitro Activity Compared to Native Peptide (%), vs Glucagon (human GCG receptor): 46.2%

B8: triple agonist of SEQ ID NO: 6 (peptide)
peptide: HXQGTFTSDVSSYLDGQAAKEFVAWLLKGC
HELM: PEPTIDE1{H.[Aib].Q.G.T.F.T.S.D.V.S.S.Y.L.D.G.Q.A.A.K.E.F.V.A.W.L.L.K.G.C.[am]}$$$$V2.0; N-terminus assumed
SMILES: CC(C)C[C@H](NC(=O)[C@H](Cc1c[nH]c2ccccc12)NC(=O)[C@H](C)NC(=O)[C@@H](NC(=O)[C@H](Cc1ccccc1)NC(=O)[C@H](CCC(=O)O)NC(=O)[C@H](CCCCN)NC(=O)[C@H](C)NC(=O)[C@H](C)NC(=O)[C@H](CCC(N)=O)NC(=O)CNC(=O)[C@H](CC(=O)O)NC(=O)[C@H](CC(C)C)NC(=O)[C@H](Cc1ccc(O)cc1)NC(=O)[C@H](CO)NC(=O)[C@H](CO)NC(=O)[C@@H](NC(=O)[C@H](CC(=O)O)NC(=O)[C@H](CO)NC(=O)[C@@H](NC(=O)[C@H](Cc1ccccc1)NC(=O)[C@@H](NC(=O)CNC(=O)[C@H](CCC(N)=O)NC(=O)C(C)(C)NC(=O)[C@@H](N)Cc1c[nH]cn1)[C@@H](C)O)[C@@H](C)O)C(C)C)C(C)C)C(=O)N[C@@H](CC(C)C)C(=O)N[C@@H](CCCCN)C(=O)NCC(=O)N[C@@H](CS)C(N)=O
in vitro Activity Compared to Native Peptide (%), vs GLP-1 (human GLP-1 receptor): 17%
in vitro Activity Compared to Native Peptide (%), vs GIP (human GIP receptor): < 0.1%
in vitro Activity Compared to Native Peptide (%), vs Glucagon (human GCG receptor): < 0.1%

B9: triple agonist of SEQ ID NO: 61 (peptide)
peptide: [Acetyl(2-(4-imidazolyl))][Aib]QGTFTSDYSIAMDEIACKDFVNWLLNTK
modifications: bridge 16-20; not fully specified (C-terminus)
in vitro Activity Compared to Native Peptide (%), vs GLP-1 (human GLP-1 receptor): 59.8%
in vitro Activity Compared to Native Peptide (%), vs GIP (human GIP receptor): 2.8%
in vitro Activity Compared to Native Peptide (%), vs Glucagon (human GCG receptor): < 0.1%

B10: triple agonist of SEQ ID NO: 54 (peptide)
peptide: H[Aib]EGTFTSDYSIAMDEIHQKDFVDWLLAEC
modifications: bridge 16-20; not fully specified (C-terminus)
in vitro Activity Compared to Native Peptide (%), vs GLP-1 (human GLP-1 receptor): 30.6%
in vitro Activity Compared to Native Peptide (%), vs GIP (human GIP receptor): 0.1%
in vitro Activity Compared to Native Peptide (%), vs Glucagon (human GCG receptor): 1.4%

B11: triple agonist of SEQ ID NO: 57 (peptide)
peptide: H[Aib]QGTFTSDYSIAMDEIHQKDFVNWLLNTC
modifications: bridge 16-20; not fully specified (C-terminus)
in vitro Activity Compared to Native Peptide (%), vs GLP-1 (human GLP-1 receptor): 11.7%
in vitro Activity Compared to Native Peptide (%), vs GIP (human GIP receptor): 0.3%
in vitro Activity Compared to Native Peptide (%), vs Glucagon (human GCG receptor): < 0.1%

B12: triple agonist of SEQ ID NO: 56 (peptide)
peptide: H[Aib]QGTFTSDYSKYLDEKRQKEFVNWLLAQC
modifications: bridge 16-20; not fully specified (C-terminus)
in vitro Activity Compared to Native Peptide (%), vs GLP-1 (human GLP-1 receptor): 57.9%
in vitro Activity Compared to Native Peptide (%), vs GIP (human GIP receptor): 0.8%
in vitro Activity Compared to Native Peptide (%), vs Glucagon (human GCG receptor): 4.9%

B13: triple agonist of SEQ ID NO: 66 (peptide)
peptide: Y[Aib]QGTFTSDYSKYLDECRAKDFVQWLLDHHPSSGQPPPS
modifications: bridge 16-20; not fully specified (C-terminus)
in vitro Activity Compared to Native Peptide (%), vs GLP-1 (human GLP-1 receptor): 15.8%
in vitro Activity Compared to Native Peptide (%), vs GIP (human GIP receptor): 17.2%
in vitro Activity Compared to Native Peptide (%), vs Glucagon (human GCG receptor): 172%

B14: triple agonist of SEQ ID NO: 63 (peptide)
peptide: [Acetyl(2-(4-imidazolyl))][Aib]QGTFTSDCSKYLDERAAQDFVQWLLDGGPSSGAPPPS
modifications: not fully specified (C-terminus)
in vitro Activity Compared to Native Peptide (%), vs GLP-1 (human GLP-1 receptor): 15.3%
in vitro Activity Compared to Native Peptide (%), vs GIP (human GIP receptor): < 0.1%
in vitro Activity Compared to Native Peptide (%), vs Glucagon (human GCG receptor): < 0.1%

B15: triple agonist of SEQ ID NO: 58 (peptide)
peptide: H[Aib]QGTFTSDYSKYLDEKRQKEFVQWLLNTKC
modifications: bridge 16-20; not fully specified (C-terminus)
in vitro Activity Compared to Native Peptide (%), vs GLP-1 (human GLP-1 receptor): 39.1%
in vitro Activity Compared to Native Peptide (%), vs GIP (human GIP receptor): 0.2%
in vitro Activity Compared to Native Peptide (%), vs Glucagon (human GCG receptor): 2.6%

B16: triple agonist of SEQ ID NO: 64 (peptide)
peptide: Y[Aib]QGTFTSDYSKYLDECAAKEFVQWLLDHHPSSGQPPPS
modifications: bridge 16-20; not fully specified (C-terminus)
in vitro Activity Compared to Native Peptide (%), vs GLP-1 (human GLP-1 receptor): 64.6%
in vitro Activity Compared to Native Peptide (%), vs GIP (human GIP receptor): 92.9%
in vitro Activity Compared to Native Peptide (%), vs Glucagon (human GCG receptor): 60.1%

B17: triple agonist of SEQ ID NO: 62 (peptide)
peptide: [Acetyl(2-(4-imidazolyl))][Aib]QGTFTSDKSKYLDERAAQDFVQWLLDGGPSSGAPPPS
modifications: not fully specified (C-terminus)
in vitro Activity Compared to Native Peptide (%), vs GLP-1 (human GLP-1 receptor): 5.2%
in vitro Activity Compared to Native Peptide (%), vs GIP (human GIP receptor): < 0.1%
in vitro Activity Compared to Native Peptide (%), vs Glucagon (human GCG receptor): < 0.1%

Reference: US20250114463A1, “LIVER-TARGETED DRUG AND USE THEREOF” (HANMI PHARM. CO., LTD., priority 2021, published 2025)
